Test results as given in patent publication US20070212686A1 (WHITEHEAD INSTITUTE FOR BIOMEDICAL RESEARCH, published 2007).

T1: bacterial-expressed 3'Flag-Acrp30 (full length) (murine, UniProt Q60994 18-247)
T1 construct: The bacterial construct is not described; also called Full Length Acrp; bacterial expressed Flag-tagged full-length
T1 sequence: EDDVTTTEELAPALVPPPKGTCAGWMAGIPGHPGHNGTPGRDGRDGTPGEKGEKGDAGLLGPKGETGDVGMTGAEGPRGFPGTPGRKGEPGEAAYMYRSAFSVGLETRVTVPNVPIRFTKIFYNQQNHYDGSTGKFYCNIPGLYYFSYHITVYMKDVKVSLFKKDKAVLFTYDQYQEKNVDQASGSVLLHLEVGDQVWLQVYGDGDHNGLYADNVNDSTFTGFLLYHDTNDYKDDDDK

B1: HEK produced hexameric and high-molecular weight 5'FlagAcrp30 (ligand)
chain: DYKDDDDKEDDVTTTEELAPALVPPPKGTCAGWMAGIPGHPGHNGTPGRDGRDGTPGEKGEKGDAGLLGPKGETGDVGMTGAEGPRGFPGTPGRKGEPGEAAYMYRSAFSVGLETRVTVPNVPIRFTKIFYNQQNHYDGSTGKFYCNIPGLYYFSYHITVYMKDVKVSLFKKDKAVLFTYDQYQEKNVDQASGSVLLHLEVGDQVWLQVYGDGDHNGLYADNVNDSTFTGFLLYHDTN
notes: Pool of hexamers (6 chains) and HMW species (more than 6 chains), about 50% pure, made by ammonium sulfate precipitation and anion exchange; also called HEX & HMW; hexameric and HMW 5'Flag-Acrp30
B2: murine T-cadherin (full-length), over-expressed on cells (receptor)
chain: SIVVSPILIPENQRQPFPRDVGKVVDSDRPEGSKFRLTGKGVDQDPKGTFRINENTGSVSVTRTLDRETIATYQLYVETTDASGKTLEGPVPLEVIVIDQNDNRPIFREGPYIGHVMEGSPTGTTVMRMTAFDADDPATDNALWRYNIRQQTPDKPSPNMFYIDPEKGDIVTVVSPALLDRETLENPKYELIIEAQDMAGLDVGLTGTATATIVIDDKNDHSPKFTKKEFQARVEEGAVGVIVNLTVEDKDDPTTGAWRAAYTIINGNPGQSFEIHTNPQTNEGMLSVVKPLDYEISAFHTLLIKVENEDPLVPDVSYGPSSTATVHITVLDVNEGPVFYPDPMMVTKQENISVGSVLLTVNATDPDSLQHQTIRYSIYKDPAGWLSINPINGTVDTTAVLDRESPFVHNSVYTALFLAIDSGNPPATGTGTLLITLEDINDNAPVIYPTVAEVCDDARNLSVVILGASDKDLHPNTDPFKFEIHKQTVPDKVWKISKINNTHALVSLLQNLNKANYNLPIMVTDSGKPPMTNITDLKVQVCSCKNSKVDCNGAG
modifications: GPI anchor at the C-terminus (said of T-cadherin in general in the background)
notes: Expressed from the full-length cDNA in CHO, CHO-ER and Ba/F3 cells; also called pCDNA-Tcad; pBI-GFP-Tcad

How the values were obtained:
[1] = target: B2; test: cell ELISA on CHO-T-cadherin cells, anti-Flag M2 detection; concentration as trimer equivalents
Description: (§1) CHO-ER cell lines infected with the bicistronic retroviral construct pBI-GFP-Tcad (referred to as CHO-T-cadherin) and control cells infected with pBI-GFP (referred to as CHO-GFP) were each grown in 96 well plates. One day after plating (1.5×10⁴/well), the cells were incubated in serum-free media for one hour, placed at 4° C. for thirty minutes, and blocked in PBS++ containing 4% dried milk for thirty minutes. Bacterial expressed Flag-tagged globular-Acrp30 bacterial expressed Flag-tagged full-length, or purified trimeric or hexameric and HMW 5′Flag-Acrp30 produced in HEK cells were incubated with the cells for one hour in blocking buffer at the indicated concentrations. The HEK expressed polypeptides were produced and purified by ammonium sulfate precipitation and anion-exchange chromatography. Pools containing the trimeric or a combination of hexamer and HMW 5′Flag-Acrp30 were identified by native gel electrophoresis and immunoblotting with a Flag antibody. The purity of these preparations was judged to be approximately 50% by Coomassie PAGE analysis. Protein concentration was determined by BCA assay (Pierce). The concentration of purified bacterial expressed proteins was determined by the absorbance at 280 nm and the calculated extinction coefficient derived from the primary amino acid sequence (Protean; DNAStar). […] The absorbance at 450 nm was measured with a plate reader.

[2] = target: T1, bacterial-expressed 3'Flag-Acrp30 (full …); test: cell ELISA on CHO-T-cadherin cells, anti-Flag M2 detection
Description: as §1

Binder | EC50 [1] | binding result [2]
B1 | 25 to 50 nM | 
B2 |  | no binding
